# According to the supplement of paper PMC9170038:
# Test system: MS2 coat protein
# Assay: apparent KD of MS2 coat protein; designed switch direction (-1 OFF switch, 1 ON switch): -1; higher = weaker reporter binding
# Outline: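 Transcription of designed RNA switches on Illumina chips was done by stalled E. coli RNA polymerase. SNAP-549-labelled MS2 coat protein was then titrated in doubling steps from 0.7 or 1.5 nM to 3 µM, with steps of 0.8–1.5 h at the lowest and 10–20 min at the highest concentration. The per-design median over clusters of curve-fitted normalised fluorescence is reported as apparent KD.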
# [1] = input ligand: microRNA oligo, concentration not stated
# [2] = Eterna round: R95, input ligand: FMN 200 uM
# [3] = Eterna round: R95, input ligand: microRNA oligo, concentration not stated
# [4] = Eterna round: R95, input ligand: none
Sequence,apparent KD of MS2 coat protein (input ligand: FMN 200 uM) [nM],apparent KD of MS2 coat protein [1] [nM],apparent KD of MS2 coat protein (input ligand: none) [nM],apparent KD of MS2 coat protein [2] [nM],apparent KD of MS2 coat protein [3] [nM],apparent KD of MS2 coat protein [4] [nM]
"AAAAAAAAGUGAGGAUAUGGAAAUUUGGUGAUAACAUGAGGAUCACCCAUGUGAAAACAAUAAAAUUAGAAGGUAUAAAAAAAA [AK ExNG2-1] (Eterna round: R96, puzzle: Exclusion NG 2)",122,73.1,98.8,,,
"AAAAAACAUGAGGAUCACCCAUGUUAGGAUAUGCUAUGGAAAAUAAAAAAUAAACAUAGCAGAAGGAACAAAAA [Mat - Exclusion 1 - Eli mod - D30] (Eterna round: R96, puzzle: Exclusion 1)",,33.2,,,,
AAAAAGCGAGGAUAUGCAUAAGGACCCGGGCGGGAAGUCGGACAUGAGGAUCACCCAUGUAGAAGGCGCAAAAA [Exclss2-V] (puzzle: Exclusion 2),,,,25.5,13.2,14.4
"AAAAAGGUAGGAUAUACGAAAAAAAAGGGUAAAAUAAAUAAACAUGAGGAUCACCCAUGUAGAAGGACCAAAAA [Mat - Exclusion 2 - Tesla mod - D38] (Eterna round: R96, puzzle: Exclusion 2)",,22.8,,,,
"AAAAAGUGAGGAUAUACAUGAGGAUCACCCAUGUAAUAAAAAAAAAGGGUGGAAGAAAGUAGAAGGCACCAAAA [Ex 3 May 48] (Eterna round: R96, puzzle: Exclusion 3)",323,64.5,65.3,,,
"AAAACGGACCGAGGAUAUACAUGAUAUCUUUACGUAGAAGGCGGACCGGCGACUUGAGGAUCACCCAAGUGUCCUCUUUUGCGG [Mutated MS2 EX1.26] (Eterna round: R96, puzzle: Exclusion NG 1)",184,51.1,46.7,,,
"AAAACUCGAGUUAGGAUAUUGAGUGCUAAAAUCACCAAGAAGGAACAUGAGGAUCACCCAUGUAACGAAGGUGA [BmEX4 A.10] (Eterna round: R97, puzzle: Brourd's mod of Exclusion 4)",19.8,,16,,,
AAAAGGUCAGGAUAUGCGAGCGGCAGGGAGGCAGGUCGGUGGCAGAAGGGACAUGAGGAUCACCCAUGUUAAAA [Excls4-II] (puzzle: Exclusion 4),,,,,29.2,
AAAAUAAGUGUGAGGAUAUGCUGGUCCUUGGAUCAGCAGAAGGCACAUGAGGAUCACCCAUGUAAUAUAUUUAU [Mat - Exclusion 4 - JL Mod - D62] (puzzle: Brourd's mod of Exclusion 4),,,,,77.3,
"AAACAAGCAACGAGAUCCCACAUGAGGAUCACCCAUGUCAACUGAAGUUUUAAAUCUUCAGGCUCGUCUUAUAACAA [S_tov1_V1.1] (Eterna round: R97, puzzle: Sensor, turn-off variant 1)",33.6,,34.8,,,
"AAACAGCAAGGAUAUACGGGCUGUGCUUUUCAUAUCAUACAACAUGAGGAUCACCCAUGUAGAAGGUGCAACAA [Ex2 #3] (Eterna round: R97, puzzle: Exclusion 2)",146,,44,,,
AAACAGGAAGGAUAUACAUUAUCGGAUCUUCUGGCAAUGCCACAUGAGGAUCACCCAUGUAGAAGGUCCAAAUU [Isenona] (puzzle: Exclusion 2),,,,,12.7,
"AAACCUGCCCAUGACCGCAAGCUUUUUGCUUGUCUCACCACAUGAGGAUCACCCAUGUGACAUGGGCUCCUUAUAAA [Orvesovera] (puzzle: Sensor v3, turn-off variant 2)",,,,13.7,9.96,12
"AAACUCCGGGUGAGGAUAUCUAGCAUCAAGACGCGAGAGAAGGCACUUGAGGAUCACCCAAGUACGUGGCCUAA [Quare] (Eterna round: R97, puzzle: Brourd's mod of Exclusion 4)",153,,99.9,,,
"AAACUGAGGCAAAGCUUUAGUCGUACAUGAGGAUCACCCAUGUAGGAUAUGGUAGGCAAAGCUUACCAGAAGGACAGAGUGAUC [Mat - Exclusion NG 3 - Mod of JL - D57] (Eterna round: R96, puzzle: Exclusion NG 3)",251,487,344,,,
"AAAGAACAUGAGGAUCACCCAUGUUAGGAUAUAGUAGCAGUGUAUCUAAAGACAGCAGCUAGAAGGAGCAUGAG [Eternabot (Original) Solution 46] (Eterna round: R97, puzzle: Exclusion 1)",77.4,,74.3,,,
AAAGAAGAAGUCAGGAUAUAGUUAAAGAAGACCGACUAGAAGGGACAUGAGGAUCACCCAUGUGUCAGUGGGUA [Lasoaned] (puzzle: Brourd's mod of Exclusion 4),,,,279,77.6,133
"AAAGCAAAGACAGGAUAUCGACCCAGUGAUUUUCGUGCCGGAAACAUGAGGAUCACCCAUGUGUACGAGAAGGGUCAAAACAAC [Uslebeteat] (Eterna round: R96, puzzle: Exclusion NG 2)",61.9,17.1,22.3,,,
"AAAGCGCGGUGAUAAUCUGUAACAUGAGGAUCACCCAUGUAGCAGGAUAUGGGCACAGUGGAAACUCAGAAGGGCUAUAAGCGC [Eternabot solution 21] (Eterna round: R96, puzzle: Exclusion NG 3)",171,369,288,,,
"AAAUACAAGCAAAGAUCCUACAUGAGGAUCACCCAUGUGCUCGUCUUAUAAAGUACUAUCACGAAAGUGAUAGUACA [Sensor 3, v1 - 15] (puzzle: Sensor v3, turn-off variant 1)",,,,286,48.2,1110
"AAAUACAAGCAAAGAUUCUACAUGAGGAUCACCCAUGUGCUCGUCUUAUAAAGUACUAUCACGAAAGUGAUAGUACA [Sensor 3, v1 - 33] (puzzle: Sensor v3, turn-off variant 1)",,,,21.3,161,23.2
"AAAUAGCAAGUUUGAUCCUACAUGAGGAUCACCCAUGUGUUCGUCUUAUUUGAAGACAACACAAAAGUGUUGUCUUA [Omei Mir OFFv1 B1] (Eterna round: R97, puzzle: Sensor, turn-off variant 1)",1100,,1300,,,
"AAAUAGCGAGGAUAUACUGGAAUAGAAAAUAUUCGCAUGGCACAUGAGGAUCACCCAUGUAGAAGGCGCAGUAA (Eterna round: R97, puzzle: Exclusion 2)",85.5,,25.5,,,
"AAAUAGCUAGAGGAUAUUGGAUAGGAUUUAGUGCGAGAAGGCUAGACAUGAGGAUCACCCAUGUUGUGUUGGGA [EX6 #14] (Eterna round: R97, puzzle: Exclusion 6)",82.3,,50.3,,,
"AAAUCGGUAGAGGAUAUUGUACAGGAAACGGUGCGAGAAGGUUGCACAUGAGGAUCACCCAUGUUUAAUUGCGA [EX6 #49] (Eterna round: R97, puzzle: Exclusion 6)",43.1,,28.5,,,
"AAAUUAGCAAGUAGGUCCGACAUGAGGAUCACCCAUGUUAUCUGAAAUAACGCAGCAUGAUUGUGCGCUCGUCUUAG [Sensor-V1 #7] (Eterna round: R97, puzzle: Sensor, turn-off variant 1)",67.6,,68.6,,,
